Source: US7629437 (University of California, dated 2009)
*: point of attachment. CH2Cl = ClC*

Key:
Assay in all cases: cell-based or functional assay
[1] = biological target: Human thrombin (human, UniProt P00734 328-622)
[2] = biological target: Recombinant human βII tryptase (human, singly N-glycosylated (non- and single-glycosylation forms observed))
[3] = biological target: Factor Xa
[4] = biological target: tissue-type plasminogen activator (UniProt P00750 36-562, limits assumed)
[5] = biological target: Human plasmin (human, UniProt P00747 97-810, limits assumed)
[6] = biological target: urokinase plasminogen activator (UniProt P00749 21-431, limits assumed)
[7] = biological target: Recombinant human βI tryptase (human, UniProt Q15661 31-275, N-glycosylated (non-, single-, double- and hyper-glycosylation forms observed))
Chain of Recombinant human βI tryptase (Q15661 31-275): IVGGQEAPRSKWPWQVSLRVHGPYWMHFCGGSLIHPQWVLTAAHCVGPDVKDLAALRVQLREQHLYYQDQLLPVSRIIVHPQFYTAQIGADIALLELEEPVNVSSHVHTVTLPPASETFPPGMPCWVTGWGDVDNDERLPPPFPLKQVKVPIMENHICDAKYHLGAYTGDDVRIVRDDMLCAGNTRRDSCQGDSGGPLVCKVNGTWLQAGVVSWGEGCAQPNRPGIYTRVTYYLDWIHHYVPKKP

Chain of Recombinant human βII tryptase (human, singly N-glycosylated (non- and single-glycosylation forms observed)) (chain, as listed by the source): as the sequence (Q15661 31-275) above, with N102K counted along it
Chain of tissue-type plasminogen activator (P00750 36-562 limits assumed): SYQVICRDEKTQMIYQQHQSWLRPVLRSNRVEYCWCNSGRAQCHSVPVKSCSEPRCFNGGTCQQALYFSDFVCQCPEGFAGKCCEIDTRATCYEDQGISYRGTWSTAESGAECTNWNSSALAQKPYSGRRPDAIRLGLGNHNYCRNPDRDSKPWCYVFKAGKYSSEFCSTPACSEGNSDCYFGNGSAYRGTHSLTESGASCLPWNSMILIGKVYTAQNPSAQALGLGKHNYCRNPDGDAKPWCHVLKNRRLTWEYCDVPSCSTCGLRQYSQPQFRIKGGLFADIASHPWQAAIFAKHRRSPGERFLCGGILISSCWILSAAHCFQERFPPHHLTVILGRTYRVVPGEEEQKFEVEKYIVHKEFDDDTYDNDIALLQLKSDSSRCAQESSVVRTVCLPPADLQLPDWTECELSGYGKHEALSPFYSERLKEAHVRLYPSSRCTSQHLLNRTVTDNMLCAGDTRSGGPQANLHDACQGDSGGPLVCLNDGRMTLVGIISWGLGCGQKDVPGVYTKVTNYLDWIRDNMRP
Chain of Human plasmin (P00747 97-810 limits assumed): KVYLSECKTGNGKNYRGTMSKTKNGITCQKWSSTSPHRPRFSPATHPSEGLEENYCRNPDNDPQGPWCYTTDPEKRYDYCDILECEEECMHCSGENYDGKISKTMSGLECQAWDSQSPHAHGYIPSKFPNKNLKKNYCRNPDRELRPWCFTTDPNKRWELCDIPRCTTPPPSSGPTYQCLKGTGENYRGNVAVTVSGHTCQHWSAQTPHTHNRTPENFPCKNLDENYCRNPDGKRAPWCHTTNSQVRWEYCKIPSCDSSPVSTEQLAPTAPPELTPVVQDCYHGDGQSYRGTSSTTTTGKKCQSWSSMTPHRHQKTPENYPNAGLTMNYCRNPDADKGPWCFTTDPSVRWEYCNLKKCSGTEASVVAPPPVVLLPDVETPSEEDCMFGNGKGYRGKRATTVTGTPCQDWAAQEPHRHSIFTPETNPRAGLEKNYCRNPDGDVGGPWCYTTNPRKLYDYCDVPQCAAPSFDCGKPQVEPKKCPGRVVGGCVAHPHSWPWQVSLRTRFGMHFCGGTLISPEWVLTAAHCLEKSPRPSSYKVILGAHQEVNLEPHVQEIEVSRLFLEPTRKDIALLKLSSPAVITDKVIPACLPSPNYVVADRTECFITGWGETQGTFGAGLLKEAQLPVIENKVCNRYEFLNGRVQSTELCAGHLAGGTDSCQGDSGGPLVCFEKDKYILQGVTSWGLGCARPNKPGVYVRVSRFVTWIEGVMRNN

B1: Ac-PRNK-cmk (peptide)
peptide: Ac-PRNK-CH2Cl
SMILES: CC(=O)N1CCC[C@H]1C(=O)N[C@@H](CCCNC(=N)N)C(=O)N[C@@H](CC(N)=O)C(=O)N[C@@H](CCCCN)C(=O)CCl
Q: With B1 as the binder, how does the “Percent Inhibition, 10 µM Ac-PRNK-cmk” value [1] read?
A: 0%

Q: And the “Percent Inhibition, 100 µM Ac-PRNK-cmk” value [1]?
A: 0%

Q: And the “Percent Inhibition, 10 µM Ac-PRNK-cmk” value [2]?
A: 95%

Q: And the “Percent Inhibition, 100 µM Ac-PRNK-cmk” value [2]?
A: 100%

Q: What about the “Percent Inhibition, 10 µM Ac-PRNK-cmk” value [3] of the same binder?
A: 0%

Q: And the “Percent Inhibition, 100 µM Ac-PRNK-cmk” value [3]?
A: 0%

Q: And the “Percent Inhibition, 10 µM Ac-PRNK-cmk” value [4]?
A: 0%

Q: What about the “Percent Inhibition, 100 µM Ac-PRNK-cmk” value [4] of the same binder?
A: 0%

Q: What about the “Percent Inhibition, 10 µM Ac-PRNK-cmk” value [5] of the same binder?
A: 0%

Q: What about the “Percent Inhibition, 100 µM Ac-PRNK-cmk” value [5] of the same binder?
A: 63%

Q: And the “Percent Inhibition, 10 µM Ac-PRNK-cmk” value [6]?
A: 0%

Q: What about the “Percent Inhibition, 100 µM Ac-PRNK-cmk” value [6] of the same binder?
A: 34%

Q: What about the “Percent Inhibition, 10 µM Ac-PRNK-cmk” value [7] of the same binder?
A: 95%

Q: And the “Percent Inhibition, 100 µM Ac-PRNK-cmk” value [7]?
A: 100%
